Molecular target: the molecule itself
Test: crystal structure

B1: human DNMT3A (R836A) C-terminal domain (residues 628-912) (domain or fragment, UniProt Q9Y6K1-1 628-912, looked up)
chain: AEKRKPIRVLSLFDGIATGLLVLKDLGIQVDRYIASEVCEDSITVGMVRHQGKIMYVGDVRSVTQKHIQEWGPFDLVIGGSPCNDLSIVNPARKGLYEGTGRLFFEFYRLLHDARPKEGDDRPFFWLFENVVAMGVSDKRDISRFLESNPVMIDAKEVSAAHRARYFWGNLPGMNRPLASTVNDKLELQECLEHGRIAKFSKVRTITTASNSIKQGKDQHFPVFMNEKEDILWCTEMERVFGFPVHYTDVSNMSRLARQRLLGRSWSVPVIRHLFAPLKEYFACV
modifications: covalently bound to Zebularine of the 25-mer DNA
**Q.** Does B1 bind?
**A.** binds
